Results published in patent publication US20180155451A1 (published 2018).

T1: FcγRIIa H (human, UniProt P12318 34-217)
T1 construct: extracellular domain; Soluble extracellular domain with C-terminal His tag, expressed in FreeStyle293 cells; also called FcgRIIa H; 2aH; not shown: C-terminal His tag
T1 sequence (looked up): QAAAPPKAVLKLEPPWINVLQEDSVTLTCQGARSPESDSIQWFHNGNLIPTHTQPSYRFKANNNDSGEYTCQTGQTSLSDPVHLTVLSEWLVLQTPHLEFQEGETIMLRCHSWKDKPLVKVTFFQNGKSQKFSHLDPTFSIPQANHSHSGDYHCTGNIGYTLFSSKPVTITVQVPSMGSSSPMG

T2: FcγRIIb (human, UniProt P31994 43-217)
T2 construct: extracellular domain; Soluble extracellular domain with C-terminal His tag, expressed in FreeStyle293 cells; also called FcgRIIb; 2b; not shown: C-terminal His tag
T2 sequence (looked up): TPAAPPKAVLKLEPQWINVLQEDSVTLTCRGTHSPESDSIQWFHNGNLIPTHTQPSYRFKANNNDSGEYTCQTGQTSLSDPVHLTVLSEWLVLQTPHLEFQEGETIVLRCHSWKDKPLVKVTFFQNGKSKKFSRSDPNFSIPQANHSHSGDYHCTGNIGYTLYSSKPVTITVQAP


Key:
FcγRIIa H = biological target: T1, FcγRIIa H; assay: SPR (Biacore), antibody captured, FcγR as analyte; relative to HeCon Ab
Method: (§1) The heterodimerized antibodies He Abs in which one of the H chains was introduced with an alteration were assayed for their binding activities to each activating FcγR and inhibitory FcγR according to the method described in Example 4. […] The activating FcγRs in FIGS. 26, 27, 28, and 29 are FcγRIa, FcγRIIa (R), FcγRIIa (H), and FcγRIIIa, respectively.
(§2) Analysis of interaction between objective antibody and the FcγR was carried out using Biacore T100 (GE Healthcare). HBS-EP+ (GE Healthcare) was used as the running buffer, and the measurement temperature was set to 25° C. Chips produced by immobilizing the antigen peptide by the amine coupling method to a Series S Sencor Chip CM5 (GE Healthcare), or alternatively, chips produced by allowing preliminarily biotinylated antigen peptides to interact with and immobilize onto a Series S Sensor Chip SA (certified) (GE Healthcare) were used. Antibodies of interest were captured onto an antigen peptide-immobilized chip, and allowed to interact to each FcγR diluted with running buffer. To regenerate and repeatedly use the chip, the antibodies captured on the chip were washed off by reacting 10 mM glycine-HCl, pH 1.5.

FcγRIIb = biological target: T2, FcγRIIb; assay: as above
Method: as §1, §2

Row | Binder | He/Con_2aH (FcγRIIa H) | He/Con_2b (FcγRIIb)
1 | GpH7-A5/GpH7-B3 variant P238_03V/GpL16-k0 (antibody, human IgG1, kappa, Heterodimerized anti-glypican-3 IgG1; alteration in the GpH7-B3 chain only; also called He Ab) heavy 1: not shown heavy 2: not shown light: DIVMTQSPLSLPVTPGEPASISCQASESLVHSNRNTYLHWYLQKPGQSPQLLIYKVSNRFSGVPDRFSGSGSGTDFTLKISRVEAEDVGVYYCSQNTHVPPTFGQGTKVEIERTVAAPSVFIFPPSDEQLKSGTASVVCLLNNFYPREAKVQWKVDNALQSGNSQESVTEQDSKDSTYSLSSTLTLSKADYEKHKVYACEVTHQGLSSPVTKSFNRGEC | 89 % of GpH7-A5/GpH7-B3/GpL16-k0 (=100) | 120 % of GpH7-A5/GpH7-B3/GpL16-k0 (=100)
2 | GpH7-A5/GpH7-B3 variant P238_04F/GpL16-k0 (antibody, human IgG1, kappa, Heterodimerized anti-glypican-3 IgG1; alteration in the GpH7-B3 chain only; also called He Ab) heavy 1: not shown heavy 2: not shown light: DIVMTQSPLSLPVTPGEPASISCQASESLVHSNRNTYLHWYLQKPGQSPQLLIYKVSNRFSGVPDRFSGSGSGTDFTLKISRVEAEDVGVYYCSQNTHVPPTFGQGTKVEIERTVAAPSVFIFPPSDEQLKSGTASVVCLLNNFYPREAKVQWKVDNALQSGNSQESVTEQDSKDSTYSLSSTLTLSKADYEKHKVYACEVTHQGLSSPVTKSFNRGEC | 65.4 % of GpH7-A5/GpH7-B3/GpL16-k0 (=100) | 312 % of GpH7-A5/GpH7-B3/GpL16-k0 (=100)
3 | GpH7-A5/GpH7-B3 variant L234_09D/GpL16-k0 (antibody, human IgG1, kappa, Heterodimerized anti-glypican-3 IgG1; alteration in the GpH7-B3 chain only; also called He Ab) heavy 1: not shown heavy 2: not shown light: DIVMTQSPLSLPVTPGEPASISCQASESLVHSNRNTYLHWYLQKPGQSPQLLIYKVSNRFSGVPDRFSGSGSGTDFTLKISRVEAEDVGVYYCSQNTHVPPTFGQGTKVEIERTVAAPSVFIFPPSDEQLKSGTASVVCLLNNFYPREAKVQWKVDNALQSGNSQESVTEQDSKDSTYSLSSTLTLSKADYEKHKVYACEVTHQGLSSPVTKSFNRGEC | 89.9 % of GpH7-A5/GpH7-B3/GpL16-k0 (=100) | 150 % of GpH7-A5/GpH7-B3/GpL16-k0 (=100)
4 | GpH7-A5/GpH7-B3 variant P238_15Y/GpL16-k0 (antibody, human IgG1, kappa, Heterodimerized anti-glypican-3 IgG1; alteration in the GpH7-B3 chain only; also called He Ab) heavy 1: not shown heavy 2: not shown light: DIVMTQSPLSLPVTPGEPASISCQASESLVHSNRNTYLHWYLQKPGQSPQLLIYKVSNRFSGVPDRFSGSGSGTDFTLKISRVEAEDVGVYYCSQNTHVPPTFGQGTKVEIERTVAAPSVFIFPPSDEQLKSGTASVVCLLNNFYPREAKVQWKVDNALQSGNSQESVTEQDSKDSTYSLSSTLTLSKADYEKHKVYACEVTHQGLSSPVTKSFNRGEC | 59.8 % of GpH7-A5/GpH7-B3/GpL16-k0 (=100) | 218 % of GpH7-A5/GpH7-B3/GpL16-k0 (=100)
5 | GpH7-A5/GpH7-B3 variant G237_05P/GpL16-k0 (antibody, human IgG1, kappa, Heterodimerized anti-glypican-3 IgG1; alteration in the GpH7-B3 chain only; also called He Ab) heavy 1: not shown heavy 2: not shown light: DIVMTQSPLSLPVTPGEPASISCQASESLVHSNRNTYLHWYLQKPGQSPQLLIYKVSNRFSGVPDRFSGSGSGTDFTLKISRVEAEDVGVYYCSQNTHVPPTFGQGTKVEIERTVAAPSVFIFPPSDEQLKSGTASVVCLLNNFYPREAKVQWKVDNALQSGNSQESVTEQDSKDSTYSLSSTLTLSKADYEKHKVYACEVTHQGLSSPVTKSFNRGEC |  | 24.6 % of GpH7-A5/GpH7-B3/GpL16-k0 (=100)

Next, values leading:

Row | He/Con_2aH (FcγRIIa H) | He/Con_2b (FcγRIIb) | Binder
6 | 59.5 % of GpH7-A5/GpH7-B3/GpL16-k0 (=100) | 123 % of GpH7-A5/GpH7-B3/GpL16-k0 (=100) | GpH7-A5/GpH7-B3 variant P238_20W/GpL16-k0 (antibody, human IgG1, kappa, Heterodimerized anti-glypican-3 IgG1; alteration in the GpH7-B3 chain only; also called He Ab) heavy 1: not shown heavy 2: not shown light: DIVMTQSPLSLPVTPGEPASISCQASESLVHSNRNTYLHWYLQKPGQSPQLLIYKVSNRFSGVPDRFSGSGSGTDFTLKISRVEAEDVGVYYCSQNTHVPPTFGQGTKVEIERTVAAPSVFIFPPSDEQLKSGTASVVCLLNNFYPREAKVQWKVDNALQSGNSQESVTEQDSKDSTYSLSSTLTLSKADYEKHKVYACEVTHQGLSSPVTKSFNRGEC
7 | 89.8 % of GpH7-A5/GpH7-B3/GpL16-k0 (=100) | 167 % of GpH7-A5/GpH7-B3/GpL16-k0 (=100) | GpH7-A5/GpH7-B3 variant G236_09D/GpL16-k0 (antibody, human IgG1, kappa, Heterodimerized anti-glypican-3 IgG1; alteration in the GpH7-B3 chain only; also called He Ab) heavy 1: not shown heavy 2: not shown light: DIVMTQSPLSLPVTPGEPASISCQASESLVHSNRNTYLHWYLQKPGQSPQLLIYKVSNRFSGVPDRFSGSGSGTDFTLKISRVEAEDVGVYYCSQNTHVPPTFGQGTKVEIERTVAAPSVFIFPPSDEQLKSGTASVVCLLNNFYPREAKVQWKVDNALQSGNSQESVTEQDSKDSTYSLSSTLTLSKADYEKHKVYACEVTHQGLSSPVTKSFNRGEC
8 | 13.9 % of GpH7-A5/GpH7-B3/GpL16-k0 (=100) | 148 % of GpH7-A5/GpH7-B3/GpL16-k0 (=100) | GpH7-A5/GpH7-B3 variant G237_08L/GpL16-k0 (antibody, human IgG1, kappa, Heterodimerized anti-glypican-3 IgG1; alteration in the GpH7-B3 chain only; also called He Ab) heavy 1: not shown heavy 2: not shown light: DIVMTQSPLSLPVTPGEPASISCQASESLVHSNRNTYLHWYLQKPGQSPQLLIYKVSNRFSGVPDRFSGSGSGTDFTLKISRVEAEDVGVYYCSQNTHVPPTFGQGTKVEIERTVAAPSVFIFPPSDEQLKSGTASVVCLLNNFYPREAKVQWKVDNALQSGNSQESVTEQDSKDSTYSLSSTLTLSKADYEKHKVYACEVTHQGLSSPVTKSFNRGEC
9 | 50.9 % of GpH7-A5/GpH7-B3/GpL16-k0 (=100) | 70.4 % of GpH7-A5/GpH7-B3/GpL16-k0 (=100) | GpH7-A5/GpH7-B3 variant P238_13S/GpL16-k0 (antibody, human IgG1, kappa, Heterodimerized anti-glypican-3 IgG1; alteration in the GpH7-B3 chain only; also called He Ab) heavy 1: not shown heavy 2: not shown light: DIVMTQSPLSLPVTPGEPASISCQASESLVHSNRNTYLHWYLQKPGQSPQLLIYKVSNRFSGVPDRFSGSGSGTDFTLKISRVEAEDVGVYYCSQNTHVPPTFGQGTKVEIERTVAAPSVFIFPPSDEQLKSGTASVVCLLNNFYPREAKVQWKVDNALQSGNSQESVTEQDSKDSTYSLSSTLTLSKADYEKHKVYACEVTHQGLSSPVTKSFNRGEC
